Experimental findings from the DeepSol protein solubility set are described below.

A short description of this data set: soluble on expression in E. coli; label from the status in PepcDB or PDB records.
Consider “MSLGEPMKQEKQQFIKTDWTIDMINRRQFEKYAIDILTATKDIHRGGWVERIDNKAWQYVRVYENGDIEVLITLQIIRFHKYFDTPVWLQFNPNHLLPADYVQLDHVMKYVDHSHLTRADLANDIYNINLQRYDFGLFGVTRDIYRSLSGDLETRYWGRRKSERQIRLYDKMREMKKHGKADDIPDGITDWWRLEFQFRGGKVESWQEEVMDKMQSFHVLAVDDNDDLSEIDKAILARVNADKFDFKRVGKRYAAKIRKMVRENVGFDTTVAELSLKTFNEQKDELQRQLDSMLAKYNIGAQTEEMTAYFEEELKQTGNLDFSVVESESALERNVIRNIAKTWREENSLTHRTNTEGHHHHHH”, for which the “soluble on expression in E. coli” value is listed as “not soluble”.

As for “MSLGFSRQAFYKRHLNDLARHEEDVLCSSIIQYCWHLRQAEHLPQAGFRELMVLCQQYFGPKFTLGRDRFCALLRRHGMMLRKRSVRPRTTNSRHRLYKYEDLLNTEPKFVPQRPGELLVADITYVAYQDGFAYLSLLTDAYSRCIVGYCLHPTLEVEGCLNALHQAFAFYDQHQIDTTNMIHHSDRGIQYAGKSYTDLLHGRGWRISMTQTGDPLHNALAERMNNTLKNSWHISSSKQSFDQALLSVDRAVRMYNEARPHQALRAKTPMQVITPESEGHHHHHH”, the “soluble on expression in E. coli” value was “soluble”. For “MSLGGLCPRCRGRGWCGRDRCPFLDALNEVRARLSSRNVDGYTVTAHVSWRGYPRVIAAPGVGEHRTPDEGGVLADLPYEEALKTRALTFRRYRGKRDVRNPPDLSDPEIESSISVRPVESTLQVRRRLSGASRTTPFIGPLVEGELELDGTPKVPRDLERYHEDDVKAEEAVVGLYRRGYDESYIARALSLGLLGRDRRMVPTRWSVAAVDSMVSEHLAREVRDLPVSSEYRVLSGEVFGNEMWVILRPEPLSYELVEAYEPGAPWSDRTRIAVLRDSEVKDCKEPRETGGAYFAARLAALEWCSELGKQHGITVIRIVRKEYSAPLGAWVIREAVRRAEEVFSTDDPREVWEFLREKLDDPVGEAALKVIKRGRQRTLDTFLEGHHHHHH”, the “soluble on expression in E. coli” value is “not soluble”. With “MSLGGTGKVGVILPLLTSPFWQSYNDYVPKMAKSEGVDTLKTVNSNSDPSQQITDINNQLNQGVKGLVVAPLDSAAIEAGLDQADRKGVPVVAVDVAPEKGKVAMVVRADNVAYGEKACQYLGEQVTSGKVVQIMGDLASVNGRDRSEAFRTCVRKNYPKLKVLEIPAKWESDTAASKLDTLLNANPDIKGIYMQAGGVYLAPTLQTLKSKGLLKKTGEKGHITIVSNDGIPQEFDAIRKGQIDATVSQPADAYAKYGMYYIKAAMQGKTFKPGPTDHDSTIVKLPSGILEDQLPAPLVTKDNVDDAKLWGNTEGHHHHHH”, the “soluble on expression in E. coli” value is reported as “soluble”. As for “MSLGINRIDHAAVQVGDLGKALAWYEDVLGLTVLSRDDTTVHLACRGEAADITLVKGRQSLENFAFGVDDQEDLDRVESILKQEGVASERLNGDSRPGEGATLKFHLPSGHELRLCTGGAERRAGISDFDARGSHVPCDMDHINLLGAVDPSVMRDFLMMIGFKSSLNISVGGQLAGVWLRGSAYDHDIAYMRAVRPGDRLHHVAFAVEDGNHYFRLSDRLMDTGHRWEFGPGRHNGGLGKSTGFGTNNYAYAFDPFGNRNEFSSGMEQFSDDTPPLDCHIAPEQLTEVMNGWGYEMAETFMTVGSEGHHHHHH”, the entry is “not soluble”. For “MSLGKYFGTDGVRGVANTELTPELAFKLGRIGGYVLTKDKENPKVLIGRDTRISGEMLEGALVAGLLSIGVEVMRLGVISTPGVAFLTKAVSASAGVMISASHNPVADNGIKFFGPDGFKLLDEQEKEIETLLDQEDALPRPTGADLGQANDYFEGAQKYLQFLKQTVDEDFTGIHIALDCANGAASSLAPHLFADLEADISTMGTSPNGKNINDGVGSTHPEALAAFVNAKNADIGLAFDGDADRLIAVDEKGNIVDGDKILYICAKYMKEKGLLKQQTLVTTVMSNLGLYKALEALQIDTKQTAVGDRYVMEEMRKGGYNLGGEQSGHIIFLDHITTGDGMLSALQLVNIMKQTGKKLSELAEEWETFPQTLVNIRVTDKHAVTDNEKVPAVIKEVEQEMNGEGRVLVRPSGTEPLVRIMVEAKTEELCDAFVNKIADVVKAELGQEEGHHHHHH”, the “soluble on expression in E. coli” value is “soluble”. With “MSLGLAIIHSRASIGVQAPPVTVEVHISNGMPGFTLVGLPETTVKESRDRVRSAIINSRFEFPAKRITVNLAPADLPKEGGRFDLPIALGILAASDQIARNKLESYEFIGELALSGEIRGVKGVLPAALAANQVERCLVVPHSNGDQAALVGVERHKSAQSLLEVCADLCGQQTLSLFQSSPSVQQVSQTRDLQDIIGQQQGKRALEIAAAGNHNLLFLGPPGTGKTMLASRLCDLLPEMSDEEAMETASIASLTQQEINQHNWKLRPFRAPHHSSSMAALVGGGTIPRPGEISLAHNGLLFLDEMPEFERKVLDSLREPLESGEIVISRAQGKTRFPARFQLVGALNPSPTGYYEGSQARANPQSILRYLSRLSGPLLDRFDMSIEIPALPKGTLANGGDRGESTAAVRQRVWVARERMLARSGKVNALLQSREIEQYCPLLKADAEFLESALHRLGLSIRAYHRIIKVARTIADLQGEAQIARPHLAEALGYRAMDRLLKQLSAQNEGHHHHHH”, the “soluble on expression in E. coli” value is “soluble”. Regarding “MSLGMHLPGGIVENVRKRPGMYCGDVGEYGLHHLVYFLLDVAYEEARRGECRDVVLEVGGDGSIALFCTSRTVTAENLVRVATGAGFLGRPPGDGWGWDSMLVVSLALSSRYQVDIWADGRQWRVMGEHGHPQGEGAAVTPMEPMPVSAERGVRVHFVPDATIFEVLAFDRARLSRRCNELAALAPGLRVSFADLQRGERTLWHLPGGVAQWAHVLTEARPQLHPEPVVFDFTWDGLRVQCALQWCEDEDSTLLSFANAVRTVRHGAHVKGVTQALRGALAKLSGETRGAFPWARVAQGLTAIVAVSGPRRQMAFAGPTKELLAIPGLEEAIRKQLQPLFIELLREHPVTPALLARRTSGSEGHHHHHH”, the “soluble on expression in E. coli” value was “soluble”.

Take “MSLGNPAAMLAAYNTSTQVAPQPQLGPRAGEVQLSSEQQAMIDYVLAGKDVIVDATVGSGKTTAIQRLCSIMGADHDVLYLTYSKLLKVDAQQRVRGAKVQNYHGIVYPHLLKAGIKCGISESIREFNKNFKHISRTFPSYDLLVIDEYQDINEDYAELLRNIKSVNPLMQIVMVGDLEQKVRSDTTLDPQEFAAQLCEDPVFAPFTQSFRIGEAMAAGLADAWNKPIVGANTAQQIEYRSFAEAVVLIQSTEPSKLLCLGSRNGQMSDALNVVERKSPAKFNKKTVFASIRDGDSQIAHPNDAAVFTTFDSSKGLERDTCVVFDYDEEFWDMRLGYPNVDPVVMRNVFLVAASRGKNKVVFVRSDSLQAAYEAGADWAAGLAVGVVDNNTEVAPEVDAHTPAEESKGDVGEVQSQIERMMGFIPVSVFKELPELAPSEYARPISVTEAFDFKYAENVEACFDLLDVKRLDNGKGAAIEVNRSDGLIDLSPTVGNFQEAVFFKDYNVHTALSAYPSQFAKNLKRLVKKNNSVWRNCLIVTAASTEQMRYVDQVRSSIPVAAEKALVSRLSTRLNADSRNQIPLILDGEAVQSKVVRTPMSFAGVADAVHKGVLYELKFVSELTHPMFLQLAMYLVMSGMKDGILWNTRTDEAWQVRVPDPKRFLNAVVLCVSKQDYRVGNFDLPSTGGEGHHHHHH”: the “soluble on expression in E. coli” value is reported as “soluble”. Turning to “MSLGNTTVVTTTVRNATPSLTLDAGTIERFLAHSHRRRYPTRTDVFRPGDPAGTLYYVISGSVSIIAEEDDDRELVLGYFGSGEFVGEMGLFIESDTREVILRTRTQCELAEISYERLQQLFQTSLSPDAPRILYAIGVQLSKRLLDTTRKASRLAFLDVTDRIVRTLHDLSKEPEAMSHPQGTQLRVSRQELARLVGCSREMAGRVLKKLQADGLLHARGKTVVLYGTR”, the “soluble on expression in E. coli” value was “soluble”. “MSLGPVGMSGGMDINSMVSKIVDAERVPKQQRIDNDRTTINASISAYGRLRESLDTMKNLMANFRQEKAFAVRTVETTDDNIVSATATTDAIAGKYAIDVLQLAQSHK”: the “soluble on expression in E. coli” value is recorded as “not soluble”.

For “MSLGQKVRGNLIIIGGAEDKVGKKTILKYVADIVREKKGSLVILTTATQKPQEVGNNYRQVFETLGLMDIDVLNINSRDEADLDENAERIRSSGGIFFTGGDQLRITSILGGTKVYKALHEVYSKGVVIVGTSAGASVMSNTMIVEGKDNEPARKCTMKMAPGLGFLEEAIIDQHFDQRGRIGRLLCGVAENPFMLGIGIDEDTAIRVYPDAHFEVLGSNAVTVIDGSTIKSTNVSELNPDEILAISGVTLHVLPCGYGFDMKKKRSEGHHHHHH”, the “soluble on expression in E. coli” value was “soluble”. On to “MSLGTGSLGLTFHNFSFGDLFNPSAYHPLPHGDGQTLALQWQFGSNHYRTLSLSASDPWAFGTHTSLGFTAFKTKQTYDLTSSNLSTKTINQYGADITIGRRLTWPDDYFAISWRLGYLHTKGGFVSFLNETNAPEEAEEFSITQTISRNSIDNPIYPRHGSKNVFTAQLAGGVLPGTINFYKLIGKTSWFFPVSHNLVVNVAAQQGYLNTFSKDDYIPYTDYFYMGGSGMSSLPTIPLRGYPDHSLGQQFEGETDLYGGRVYSKFTTEVRYPLTLSSSASIYALAFAEAGNLWASASDFNLTDLKKSAGIGLRLYLPIIGQIGIDYGYGFDSVPSEPGKKPQGWNFTFSFGQPNEGHHHHHH”, for which the “soluble on expression in E. coli” value is on record as “not soluble”. Take “MSLHEAADGILETHVTWKDIEEAMQLSFGTYATFGDNMKATNISDLKGFQSIIALIEPDWIDVEKGKDLPKKFAVKISTQLALAVLSKIMKLGGENGFSEEKLNELGKLIRDGHNREVATYKLLEKMNHPDIPYTKVYGLKGYSDANDLKGFMIMEFIPNVRSIPMYEAILADDLISLVRGIATFAALGETLSEEEKAFAGGPEYLESMFEEVFTDEQLERIY”: the “soluble on expression in E. coli” value was “not soluble”.

As to “MSLHGRLRDILRLLMAAEAPVTSSFFAAQLNVTTRTVRNDIKELQGVLSGHGAFVQSVRGSGYKLRIDDEQVFRTLLQDEFQQKKGLPVLPEERMAYLMKRLLLADHYLKLDELAEELFISKSTLQTDLKEVKKRLLPYRIVMETRPNYGFKLRGDEVQMRYCMAEYIVDERETEIDVLNEKADILPKEEIEIIRSAILKKMKNDRIPLSNMGLNNLIIHIAIACKRIRTENYVSLFPKDMDHILHQKEYQAAEAIVKELESKLSVTFPKDETAYITMHLLGTKRMTQSQCGEDTFSIEEETDQLTLAMIKAVDRELKLGILHDKELKIGLALHMKPAISRNRYGMNLRNPMLAAIKEHYPLAFEAGIIAGIVIKEQTGIEIHENEIGYLALHFGAAIERKKTESPPKRCIIVCASGAGSAQLLREKLRSHFGKRLDILGTAEYYSLDQMSYESIDFVISTIPIKKELPVPVLKVNTILGGTDFTKIESILSDEKEKANRYLKKELVFFQEDLRSKEEVIQFLGQKVVECGFADEEIIDSIFEREDMSPTCFGNLVAIPHPLVPQTKTTFWAVCTLKKPIDWESQRVQFVCLLCVEKENKADLQSMYKLLGSILDDPAAMNQLIKCRSYQELSDVFDQKMLSEGHHHHHH”, the “soluble on expression in E. coli” value is “soluble”.

In the case of “MSLHSLQRKVLRTICPDQKGLIARITNICYKHELNIVQNNEFVDHRTGRFFMRTELEGIFNDSTLLADLDSALPEGSVRELNPAGRRRIVILVTKEAHCLGDLLMKANYGGLDVEIAAVIGNHDTLRSLVERFDIPFELVSHEGLSRNEHDQKMADAIDAYQPDYVVLAKYMRVLTPEFVARFPNKIINIHHSFLPAFIGARPYHQAYERGVKIIGATAHYVNDNLDEGPIIMQDVIHVDHTYTAEDMMRAGRDVEKNVLSRALYKVLAQRVFVYGNRTIILEGHHHHHH”, the “soluble on expression in E. coli” value is “soluble”.
